Data taken from paper PMC5178350.

Biological target: Haloferax volcanii deoxyhypusine synthase (T7-His-DHS) (Haloferax volcanii)
Assay: SEC; Sephacryl S-200 HR gel filtration column equilibrated with buffer A (20 mM Tris-HCl pH 8, 2 M NaCl), flow rate 0.3 mL/min; oligomer size from the estimated molecular weight

Haloferax volcanii deoxyhypusine synthase (T7-His-DHS) (enzyme)
stoichiometry N: 4
